Columns and labels:
SYNAGIS® [1] = test: SPR BIAcore 3000, SYNAGIS immobilized via primary amino groups, equilibrium binding of soluble SynBP01
SYNAGIS® [2] = test: SPR BIAcore 3000, both injected at 1 µM over immobilized SYNAGIS

Sequence of SYNAGIS® (VH, as listed by the source, chain 1 of 2): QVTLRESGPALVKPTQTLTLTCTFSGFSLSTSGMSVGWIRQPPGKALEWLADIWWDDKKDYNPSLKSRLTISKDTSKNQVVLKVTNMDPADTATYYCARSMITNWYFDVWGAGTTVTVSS
Sequence of SYNAGIS® (VL, as listed by the source, chain 2 of 2): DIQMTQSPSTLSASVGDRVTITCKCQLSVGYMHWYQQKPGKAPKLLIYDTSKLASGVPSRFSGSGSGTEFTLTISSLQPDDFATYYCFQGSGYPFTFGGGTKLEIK

B1: SynBP01 (designed binder)
chain: AAIEVKDVTDTTALITWSPPSVLVGYTIELTYGIKDVPGDRTTIDLTEDENQYSIGNLKPDTEYEVSLISVTEFGRRRSKETFTTGGGTLEHHHHHH
- Kd (SYNAGIS® [1]): 16 µM

B2: SynBP01-Fc (Fc fusion, not shown: a dimerising Fc or GST)
chain: IEVKDVTDTTALITWSPPSVLVGYTIELTYGIKDVPGDRTTIDLTEDENQYSIGNLKPDTEYEVSLISVTEFGRRRSKETFTT
- fold increase in total response units compared to SynBP01 (SYNAGIS® [2]): 6 fold
